Experimental data: paper PMC8358037 (Communications Biology, 2021)
Positions count from the first letter of the chain named.

B1: anti-CROP gastrobody G9 (His6-Thrombin site-SpyTag003-gastrobody) (designed binder)
chain: DFVLDNEGNPLENGGTYYILSHPDLFGGIRAAPTGNERCPLTVVQSLYLFDKGIGTIISSPYRIRFIAEGHPLSLKFDSFAVIMLCVGIPTEWSVVEDLPEGPAVKIGENKDAMDGWFRLERVSDDEFNNYKLVFCPQQAEDDKCGDIGISIDHDDGTRRLVVSKNKPLVVQFQKLDKESL
B2: anti-CROP gastrobody G22 (His6-Thrombin site-SpyTag003-gastrobody) (designed binder)
chain: B1 chain with H22L, P23Q, D24N, L25R, L47H, Y48D, L49F, F50M
B3: anti-CROP gastrobody T42 (His6-Thrombin site-SpyTag003-gastrobody) (designed binder)
chain: B1 chain with H22V, D24H, L25Q, L47R, Y48N, L49K, F50W

Target: combined repetitive oligopeptide domain of C. difficile toxin A (AviTag-His6-CROP) (Clostridium difficile, UniProt P16154 2304-2710)
Test: SPR
Conditions: both partners purified

Going from B1 to B2, the Kd rises from 4.1 µM to about 50 µM (12-fold).

With B3 the Kd was 6.2 µM.
